Laboratory results reported in patent US20120004117A1 (FORERUNNER PHARMA RESEARCH, published 2012).

B1: anti-TM4SF20 antibody B12 (antibody, mouse IgG1, V domains shown)
VH: QVQLKESGPDLVQPSQTLSLTCTVSGFSLTNYGVHWVRQPPGKGLEWVGTMGWDDKKYYNSALKSRLSISRDTSKNQVFLKLSSLQTEDTAMYYCTRNVNFDYWGQGTTLTVSS
VL: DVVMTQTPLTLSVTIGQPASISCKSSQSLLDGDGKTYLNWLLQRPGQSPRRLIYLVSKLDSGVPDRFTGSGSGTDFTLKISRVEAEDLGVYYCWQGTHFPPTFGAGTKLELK
notes: also called clone B12
B2: anti-TM4SF20 antibody B11 (antibody, mouse IgG1, V domains shown)
VH: EVQLQQSGPELVKPGASVKMSCKASGYRFTNYVMHWVKQKPGQGLEWIGYINPYNAGTKYNEKFKGKATLTSDKSSSTAYMELSSLTSEDSAVYYCARGAGWSLRFADWGQGTLVTVSA
VL: DILMTQSPSSMSVSLGDTVSITCHASQGISSNIGWLQQKPGKSFKGLIYLATNLEDGVPSRFSGSGSGADYSLTITSLESEDFAVYYCVQYSQFPRTFGGGTKLEIK
notes: also called clone B11
B3: anti-TM4SF20 antibody C7 (antibody, mouse IgG1, V domains shown)
VH: QVQLKESGPDLVQPSQTLSLTCTVSGFSLSSYGVHWVRQPPGKGLEWVGTMGWDDKKYYNSALNSRLSLSRDTSKNQVFLKLSSLQTEDTAMYYCTRDYYSDGSFAYWGQGTLVTVSA
VL: DVLMTQTPLSLPVSLGDQASISCKSSQSIVHSDGNTYLQWYLQKPGQSPKLLIYKVSNRFSGVPDRFSGSGSGTDFTLKISRVEAEDLGIYYCFQGSHVPPTFGTGTKLEIK
notes: also called clone C7
B4: anti-TM4SF20 antibody C9 (antibody, mouse IgG1, V domains shown)
VH: B3 VH
VL: B3 VL
notes: also called clone C9
B5: anti-TM4SF20 antibody B8 (antibody, mouse IgG2b, V domains shown)
VH: RVQLKESGPDLVQPSQTLSLTCTVSGFSLTNYGVHWIRQPPGKGLEWVGTVGWDDKKYYNSVLKSRLSINRDTSKNQVFLKLSSLQTEDTAMYYCTPYYDGSPYVMDYWGQGTSVTVSS
VL: DIVMSQSPSSLAVSAGEKVTMTCKSSQSLFDSGTRKNYLAWYQQKPGQSPKLLIYWASTRESGVPDRFTGSGSGTDFTLTISSVQAEDLAVYYCKQSYYLLTFGAGTKLELK
notes: also called clone B8
B6: anti-TM4SF20 antibody B15 (antibody, mouse IgG2a, V domains shown)
VH: B5 VH
VL: B5 VL
notes: also called clone B15

Assays:
[1] = target: T1, N-terminally HA-tagged chimeric TM4SF20 version 2 expressed on CHO DG44 cells (chimeric TM4SF20 ver.2_CHO) (human TM4SF20 with the second loop …); test: flow cytometry, hybridoma culture supernatant on chimeric TM4SF20 ver.2_CHO cells
T1 construct: also called chimeric TM4SF20 ver.2_ntHA
T1 chain: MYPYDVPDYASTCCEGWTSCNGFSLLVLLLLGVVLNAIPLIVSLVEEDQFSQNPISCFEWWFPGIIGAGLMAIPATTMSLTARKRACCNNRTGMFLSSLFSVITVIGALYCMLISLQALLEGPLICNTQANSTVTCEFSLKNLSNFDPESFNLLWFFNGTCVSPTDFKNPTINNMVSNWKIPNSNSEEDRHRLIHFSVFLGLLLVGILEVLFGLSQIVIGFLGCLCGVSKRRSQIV
Procedure: (§1) Next, 5×10⁴ cells suspended in FACS buffer were dispensed to a U-bottom 96-well plate. The anti-TM4SF20 antibody (hybridoma culture supernatant) or the HAT medium as a negative control was added thereto at a concentration of 10 μg/mL. After reaction on ice for 1 hour, the cells were washed with FACS buffer. Next, an FITC-labeled anti-mouse antibody (Goat F(ab′)₂ Fragment Anti-mouse IgG (H+L)-FITC, Beckman Coulter, Inc.) was added thereto as a secondary antibody and reacted on ice for 1 hour. The cells were washed with FACS buffer, then suspended in FACS buffer supplemented with 10 μg/mL propidium iodide (PI, Sigma-Aldrich Corp.), and assayed using a flow cytometer. The assay data was analyzed as to PI-negative cell populations using CELLQuest software. As a result, all the clones bound to TM4SF20_CHO but to neither […] nor DG44 cells (FIG. 4).
(§2) Next, the binding of the anti-TM4SF20 antibody (hybridoma culture supernatant) was confirmed by flow cytometry in the same way as in Example 3. As a result, all the clones bound to chimeric TM4SF20 ver.1_CHO but to neither chimeric TM4SF20 ver.2_CHO nor DG44 cells (FIG. 6).

[2] = target: T2, human TM4SF20 (Transmembrane 4 L6 family member 20), endogenous (human, UniProt Q53R12 1-229); test: flow cytometry, purified antibody at 10 µg/mL on A549 cells
T2 construct: Untagged native protein as on A549 lung adenocarcinoma cells and in clinical stomach cancer sections; also called TM4SF20 protein
T2 sequence: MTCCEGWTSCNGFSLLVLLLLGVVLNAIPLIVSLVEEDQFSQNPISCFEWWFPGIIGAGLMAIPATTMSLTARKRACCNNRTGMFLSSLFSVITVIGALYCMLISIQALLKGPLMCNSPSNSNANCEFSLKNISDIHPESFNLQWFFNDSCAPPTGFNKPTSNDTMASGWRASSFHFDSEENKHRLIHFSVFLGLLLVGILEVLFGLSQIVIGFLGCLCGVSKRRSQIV
Procedure: as §1
Each anti-TM4SF20 antibody prepared in Example 2 was used to evaluate TM4SF20 expression on the cell membrane of a human cancer cell line by flow cytometry. A primary antibody used was the anti-TM4SF20 antibody (purified antibody) or a negative control antibody (mIgG2a, BD Biosciences Pharmingen). […] The flow cytometry was conducted in the same way as in Example 3 except for the primary antibody used at a concentration of 10 μg/mL. As a result, the expression of TM4SF20 was confirmed on the cell membrane of the A549 cells (FIG. 9)

[3] = target: T3, C-terminally HA-tagged TM4SF20 expressed on CHO DG44 cells (TM4SF20_CHO) (human, UniProt Q53R12 1-229); test: flow cytometry, hybridoma culture supernatant at 10 µg/mL on TM4SF20_CHO cells
T3 construct: also called TM4SF20_ctHA; pCOS2_TM4SF20_ctHA product
T3 sequence: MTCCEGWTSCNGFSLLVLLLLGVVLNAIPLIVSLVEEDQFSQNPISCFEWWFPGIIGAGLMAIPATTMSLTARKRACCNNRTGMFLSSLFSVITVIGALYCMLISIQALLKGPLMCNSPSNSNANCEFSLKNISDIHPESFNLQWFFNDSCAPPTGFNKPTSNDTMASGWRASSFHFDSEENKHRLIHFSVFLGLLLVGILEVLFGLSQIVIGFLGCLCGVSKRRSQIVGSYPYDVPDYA
Procedure: as §1

[4] = target: T4, N-terminally HA-tagged TM4SF20 expressed on Ba/F3 cells (TM4SF20_Ba/F3) (human, UniProt Q53R12 2-229); test: flow cytometry screening of hybridoma supernatants on TM4SF20_Ba/F3 against parental Ba/F3 cells
T4 construct: Four-transmembrane protein on the cell membrane; also called TM4SF20_ntHA; pMCDN2_TM4SF20_ntHA product
T4 sequence: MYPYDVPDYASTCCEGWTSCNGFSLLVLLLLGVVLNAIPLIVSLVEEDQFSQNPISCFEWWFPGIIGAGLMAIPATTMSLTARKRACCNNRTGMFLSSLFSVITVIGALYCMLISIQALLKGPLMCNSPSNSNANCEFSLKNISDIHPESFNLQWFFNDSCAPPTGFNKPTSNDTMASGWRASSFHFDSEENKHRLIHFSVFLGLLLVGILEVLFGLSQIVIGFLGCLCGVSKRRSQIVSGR

GST_TM4SF20_C2 = target: T5, GST_TM4SF20_C2 (human); test: western blotting of E. coli whole cell lysate, purified antibody
T5 construct: Tested as whole E. coli lysate, denatured, in western blotting; not shown: glutathione S-transferase (GST) tag encoded by the vector pGEX-6P-1 (GE Healthcare), upstream of the BamHI site
T5 chain: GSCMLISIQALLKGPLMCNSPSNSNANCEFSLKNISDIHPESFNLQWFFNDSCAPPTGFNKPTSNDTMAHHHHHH
Procedure: (§3) Each construct was expressed using BL21 (DE3) Competent Cells (Takara Bio Inc.). The whole cell lysate was electrophoresed by SDS-PAGE and then transferred to a PVDF membrane (Immobilon-P, Millipore Corp.) for western blotting. The construct was detected using the anti-TM4SF20 antibody (purified antibody) at a concentration of 5 μg/mL, a 3000 fold-diluted secondary antibody (HRP-anti mIgG, GE Healthcare Bio-Sciences Corp.), and ECL Western Blotting Detection Reagents (GE Healthcare Bio-Sciences Corp). The expression of each construct was confirmed using an anti-GST antibody (GE Healthcare Bio-Sciences Corp.) and an anti-His antibody (Santa Cruz Biotechnology, Inc.). Secondary antibodies used were a HRP-labeled anti-goat antibody (Invitrogen Corp.) and a HRP-labeled anti-rabbit antibody (GE Healthcare Bio-Sciences Corp.), respectively.

GST_TM4SF20_C3 = target: T6, GST_TM4SF20_C3 (human); test: as above
T6 construct: Tested as whole E. coli lysate, denatured, in western blotting; not shown: glutathione S-transferase (GST) tag encoded by the vector pGEX-6P-1 (GE Healthcare), upstream of the BamHI site
T6 chain: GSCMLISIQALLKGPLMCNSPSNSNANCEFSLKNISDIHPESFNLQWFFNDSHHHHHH
Procedure: as §3

[5] = target: T7, N-terminally HA-tagged chimeric TM4SF20 version 1 expressed on CHO DG44 cells (chimeric TM4SF20 ver.1_CHO) (human TM4SF20 with the first loop …, UniProt Q53R12 2-229); test: flow cytometry, hybridoma culture supernatant on chimeric TM4SF20 ver.1_CHO cells
T7 construct: also called chimeric TM4SF20 ver.1_ntHA
T7 chain: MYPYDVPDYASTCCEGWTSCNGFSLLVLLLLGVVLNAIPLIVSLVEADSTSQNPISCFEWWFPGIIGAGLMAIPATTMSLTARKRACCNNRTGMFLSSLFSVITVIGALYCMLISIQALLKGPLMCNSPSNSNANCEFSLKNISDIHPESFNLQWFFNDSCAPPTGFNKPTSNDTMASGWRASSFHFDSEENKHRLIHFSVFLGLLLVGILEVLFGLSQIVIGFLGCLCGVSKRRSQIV
Procedure: as §1, §2

[6] = target: T8, N-terminally HA-tagged mouse TM4SF20 expressed on CHO DG44 cells (mTM4SF20_CHO) (mouse, UniProt Q9CQY8 2-226); test: flow cytometry, hybridoma culture supernatant on mTM4SF20_CHO cells
T8 construct: also called mTM4SF20_ntHA; pCOS2_mTM4SF20_ntHA product
T8 chain: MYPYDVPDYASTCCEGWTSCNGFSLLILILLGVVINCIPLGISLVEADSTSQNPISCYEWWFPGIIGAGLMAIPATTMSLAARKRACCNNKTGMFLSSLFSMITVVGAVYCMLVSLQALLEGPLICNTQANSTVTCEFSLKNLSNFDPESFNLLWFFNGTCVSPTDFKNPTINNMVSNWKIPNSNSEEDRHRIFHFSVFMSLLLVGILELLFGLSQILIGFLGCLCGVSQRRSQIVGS
Procedure: as §1

Row | Binder | binding result [1] | binding result [2] | binding result [3] | binding result [4] | binding result (GST_TM4SF20_C2) | binding result (GST_TM4SF20_C3) | binding result [5] | binding result [6]
1 | B1 | no binding | binds | binds | binds | no binding (tested: 5 µg/mL) | no binding (tested: 5 µg/mL) | binds | no binding (tested: 10 µg/mL)
2 | B2 | no binding | binds | binds | binds | no binding (tested: 5 µg/mL) | no binding (tested: 5 µg/mL) | binds | no binding (tested: 10 µg/mL)
3 | B3 | no binding | – | – | – | no binding (tested: 5 µg/mL) | no binding (tested: 5 µg/mL) | – | no binding (tested: 10 µg/mL)
4 | B4 | no binding | – | – | – | no binding (tested: 5 µg/mL) | no binding (tested: 5 µg/mL) | – | no binding (tested: 10 µg/mL)
5 | B5 | no binding | – | – | – | no binding (tested: 5 µg/mL) | no binding (tested: 5 µg/mL) | – | no binding (tested: 10 µg/mL)
6 | B6 | no binding | – | – | – | no binding (tested: 5 µg/mL) | no binding (tested: 5 µg/mL) | – | no binding (tested: 10 µg/mL)
